Here are results for 125 sequences from the supplement of paper PMC9112550, “Optimization of the antimicrobial peptide Bac7 by deep mutational scanning” (BMC Biology, 2022).
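Further: peptides expressed intracellularly from a pBAD plasmid library in pooled LB shake-flask culture, induced with 0.3% L-arabinose, DNA abundance read by NGS, three biological replicates, DESeq2 with apeglm shrinkage.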

For this data set, the system named is Escherichia coli TOP10. As to the kind of experiment: shrunken log2 fold change of peptide-encoding DNA abundance (4.5 h post-induction vs induction); higher = less antimicrobial activity (less host growth inhibition). Particulars: time post-induction: 4.5 h; library: site-saturation at positions 5, 18, 19, 20.
Consider RRIRYRPPRLPRPRPRPYFCPRP, for which the “shrunken log2 fold change” value was -1.09.
Regarding RRIRCRPPRLPRPRPRPYMEPRP, the “shrunken log2 fold change” value was -0.428.
The result for RRIRDRPPRLPRPRPRPRYHPRP reads -0.0202; that for RRIRFRPPRLPRPRPRPNIDPRP, -0.463.
With RRIRLRPPRLPRPRPRPTECPRP, the “shrunken log2 fold change” value was -0.243.
The result for RRIRNRPPRLPRPRPRPFRDPRP reads 0.0452.
Under RRIRHRPPRLPRPRPRPYGDPRP stands -0.808; under RRIRRRPPRLPRPRPRPCALPRP, -0.22.
Consider RRIRWRPPRLPRPRPRPIPDPRP, for which the “shrunken log2 fold change” value was -0.0879.
Consider RRIRTRPPRLPRPRPRPAMSPRP, for which the “shrunken log2 fold change” value turned out to be 0.00971.
RRIRPRPPRLPRPRPRPEETPRP: the “shrunken log2 fold change” value is -0.131.
For the sequence RRIRWRPPRLPRPRPRPCSRPRP, the “shrunken log2 fold change” value is -0.162.
RRIRMRPPRLPRPRPRPMTLPRP: the “shrunken log2 fold change” value was 0.113.
With RRIRCRPPRLPRPRPRPPSNPRP, the “shrunken log2 fold change” value is -0.416.
Turning to RRIRFRPPRLPRPRPRPMYQPRP, the “shrunken log2 fold change” value was -0.167.
Take RRIRVRPPRLPRPRPRPIAPPRP: the “shrunken log2 fold change” value came to 0.328.
The result for RRIRYRPPRLPRPRPRPQPQPRP reads -0.0927.
Consider RRIRPRPPRLPRPRPRPGHLPRP, for which the “shrunken log2 fold change” value worked out at 0.234.
Under RRIRQRPPRLPRPRPRPTAMPRP stands 0.0174.
Consider RRIRDRPPRLPRPRPRPGHIPRP, for which the “shrunken log2 fold change” value is -0.0814.
Under RRIRFRPPRLPRPRPRPIAQPRP stands -0.0298; under RRIRRRPPRLPRPRPRPIFIPRP, -0.0166.
The result for RRIRDRPPRLPRPRPRPIGMPRP reads 0.0484; that for RRIRSRPPRLPRPRPRPIEMPRP, -0.0731; that for RRIRLRPPRLPRPRPRPLRLPRP, 0.417.
The result for RRIRVRPPRLPRPRPRPWKSPRP reads 0.0332; that for RRIRCRPPRLPRPRPRPFYKPRP, 0.979.
In the case of RRIRMRPPRLPRPRPRPVFIPRP, the “shrunken log2 fold change” value was -0.137.
For RRIRPRPPRLPRPRPRPLFLPRP, the “shrunken log2 fold change” value was -0.0037.
For the sequence RRIRGRPPRLPRPRPRPGSPPRP, the “shrunken log2 fold change” value is 0.469.
For RRIRIRPPRLPRPRPRPENHPRP, the “shrunken log2 fold change” value is -0.143.
RRIRIRPPRLPRPRPRPRGLPRP: the “shrunken log2 fold change” value was -0.272.
Turning to RRIRERPPRLPRPRPRPYSPPRP, the “shrunken log2 fold change” value was -0.0774.
Under RRIRSRPPRLPRPRPRPDIAPRP stands -0.0218.
Turning to RRIRQRPPRLPRPRPRPTIEPRP, the “shrunken log2 fold change” value came out at 0.0419.
On to RRIRLRPPRLPRPRPRPIYTPRP, for which the “shrunken log2 fold change” value was -0.377.
Regarding RRIRQRPPRLPRPRPRPYIQPRP, the “shrunken log2 fold change” value is -0.32.
Regarding RRIRKRPPRLPRPRPRPILTPRP, the “shrunken log2 fold change” value is -0.149.
For the sequence RRIRLRPPRLPRPRPRPQALPRP, the “shrunken log2 fold change” value was -0.042.
Turning to RRIRKRPPRLPRPRPRPEGYPRP, the “shrunken log2 fold change” value came out at 0.0317.
Take RRIRRRPPRLPRPRPRPKAFPRP: the “shrunken log2 fold change” value is -0.0104.
With RRIRSRPPRLPRPRPRPNSEPRP, the “shrunken log2 fold change” value was -0.262.
The result for RRIRFRPPRLPRPRPRPPGLPRP reads 0.573; that for RRIRFRPPRLPRPRPRPADIPRP, 0.131.
In the case of RRIRLRPPRLPRPRPRPQRGPRP, the “shrunken log2 fold change” value was 0.111.
Take RRIRCRPPRLPRPRPRPTFEPRP: the “shrunken log2 fold change” value was -0.279.
As to RRIRIRPPRLPRPRPRPIFLPRP, the “shrunken log2 fold change” value was -0.416.
Regarding RRIRERPPRLPRPRPRPECDPRP, the “shrunken log2 fold change” value worked out at 0.12.
In the case of RRIRIRPPRLPRPRPRPIHGPRP, the “shrunken log2 fold change” value is -0.0135.
For the sequence RRIRKRPPRLPRPRPRPNVNPRP, the “shrunken log2 fold change” value is -0.0135.
Under RRIRNRPPRLPRPRPRPMSCPRP stands -0.0294; under RRIRVRPPRLPRPRPRPHTYPRP, -0.154; under RRIRHRPPRLPRPRPRPIIKPRP, -0.279.
Take RRIRLRPPRLPRPRPRPIWEPRP: the “shrunken log2 fold change” value was found to be 0.0805.
The result for RRIRYRPPRLPRPRPRPKYQPRP reads -0.213; that for RRIRGRPPRLPRPRPRPWAMPRP, 0.483; that for RRIRSRPPRLPRPRPRPFQCPRP, -0.461.
As to RRIRKRPPRLPRPRPRPPNFPRP, the “shrunken log2 fold change” value amounted to 0.0909.
For RRIRRRPPRLPRPRPRPFHAPRP, the “shrunken log2 fold change” value was 0.201.
Take RRIRKRPPRLPRPRPRPFKCPRP: the “shrunken log2 fold change” value was -0.0191.
The result for RRIRSRPPRLPRPRPRPKRQPRP reads 0.000345.
For RRIRLRPPRLPRPRPRPWIKPRP, the “shrunken log2 fold change” value was -0.187.
RRIRTRPPRLPRPRPRPHPSPRP: the “shrunken log2 fold change” value turned out to be 0.00449.
Regarding RRIRNRPPRLPRPRPRPLVTPRP, the “shrunken log2 fold change” value amounted to 0.0322.
Take RRIRNRPPRLPRPRPRPIHPPRP: the “shrunken log2 fold change” value worked out at 0.135.
In the case of RRIRHRPPRLPRPRPRPSWMPRP, the “shrunken log2 fold change” value is -0.419.
As to RRIRARPPRLPRPRPRPHKRPRP, the “shrunken log2 fold change” value was determined as 0.157.
With RRIRWRPPRLPRPRPRPEVGPRP, the “shrunken log2 fold change” value came to 1.38.
On to RRIRVRPPRLPRPRPRPMKLPRP, for which the “shrunken log2 fold change” value is -0.0169.
Under RRIRYRPPRLPRPRPRPPVSPRP stands -0.378; under RRIRQRPPRLPRPRPRPGETPRP, 0.0131.
RRIRFRPPRLPRPRPRPWYNPRP: the “shrunken log2 fold change” value is -0.134.
For the sequence RRIRVRPPRLPRPRPRPTINPRP, the “shrunken log2 fold change” value is -0.286.
Turning to RRIRQRPPRLPRPRPRPNEPPRP, the “shrunken log2 fold change” value was -0.0605.
Under RRIRDRPPRLPRPRPRPMQAPRP stands -0.00208; under RRIRWRPPRLPRPRPRPESCPRP, 0.261; under RRIRCRPPRLPRPRPRPQAPPRP, 0.211.
With RRIRGRPPRLPRPRPRPYRMPRP, the “shrunken log2 fold change” value is -0.245.
As to RRIRTRPPRLPRPRPRPWGMPRP, the “shrunken log2 fold change” value is -0.126.
RRIRWRPPRLPRPRPRPYWMPRP: the “shrunken log2 fold change” value is -0.265.
As for RRIRMRPPRLPRPRPRPSAVPRP, the “shrunken log2 fold change” value came out at 1.16.
Under RRIRYRPPRLPRPRPRPLNSPRP stands -0.0402.
Under RRIRDRPPRLPRPRPRPAMMPRP stands -0.0512.
Under RRIRERPPRLPRPRPRPHMLPRP stands -0.376; under RRIRNRPPRLPRPRPRPGDRPRP, 0.0819.
Regarding RRIRDRPPRLPRPRPRPMEAPRP, the “shrunken log2 fold change” value was -0.0266.
Turning to RRIRSRPPRLPRPRPRPMLMPRP, the “shrunken log2 fold change” value was determined as 0.00173.
With RRIRSRPPRLPRPRPRPYNQPRP, the “shrunken log2 fold change” value is -0.642.
As to RRIRSRPPRLPRPRPRPMEHPRP, the “shrunken log2 fold change” value is -0.122.
Under RRIRKRPPRLPRPRPRPGLRPRP stands 0.708; under RRIRERPPRLPRPRPRPHYDPRP, -0.963; under RRIRHRPPRLPRPRPRPCFEPRP, -0.114.
Consider RRIRARPPRLPRPRPRPRFQPRP, for which the “shrunken log2 fold change” value is 0.466.
Under RRIRWRPPRLPRPRPRPFWNPRP stands -0.175; under RRIRFRPPRLPRPRPRPDCGPRP, -0.107; under RRIRLRPPRLPRPRPRPATAPRP, 0.214.
For RRIRRRPPRLPRPRPRPEYHPRP, the “shrunken log2 fold change” value amounted to 0.311.
As for RRIRGRPPRLPRPRPRPRYGPRP, the “shrunken log2 fold change” value was found to be 0.134.
Under RRIRFRPPRLPRPRPRPAQRPRP stands 0.302.
For RRIRQRPPRLPRPRPRPRWLPRP, the “shrunken log2 fold change” value was 0.453.
For RRIRIRPPRLPRPRPRPNGMPRP, the “shrunken log2 fold change” value is -0.0985.
Take RRIRHRPPRLPRPRPRPWNAPRP: the “shrunken log2 fold change” value is -0.0678.
As for RRIRVRPPRLPRPRPRPKVYPRP, the “shrunken log2 fold change” value was -0.433.
The result for RRIRFRPPRLPRPRPRPGLDPRP reads -0.0186.
Turning to RRIRSRPPRLPRPRPRPTQKPRP, the “shrunken log2 fold change” value was 0.375.
On to RRIRVRPPRLPRPRPRPTNIPRP, for which the “shrunken log2 fold change” value was -0.783.
In the case of RRIRWRPPRLPRPRPRPQYDPRP, the “shrunken log2 fold change” value was -0.212.
In the case of RRIRFRPPRLPRPRPRPNEGPRP, the “shrunken log2 fold change” value was -0.0411.
The result for RRIRQRPPRLPRPRPRPPVMPRP reads -0.285; that for RRIRSRPPRLPRPRPRPAWEPRP, 0.499; that for RRIRHRPPRLPRPRPRPSCDPRP, -0.336.
For the sequence RRIRGRPPRLPRPRPRPCDCPRP, the “shrunken log2 fold change” value is -0.0193.
For the sequence RRIRIRPPRLPRPRPRPAHMPRP, the “shrunken log2 fold change” value is -0.303.
Regarding RRIRQRPPRLPRPRPRPANFPRP, the “shrunken log2 fold change” value turned out to be 0.0982.
As to RRIRPRPPRLPRPRPRPIHNPRP, the “shrunken log2 fold change” value is -0.569.
Consider RRIRTRPPRLPRPRPRPHVSPRP, for which the “shrunken log2 fold change” value is -0.287.
As for RRIRCRPPRLPRPRPRPKCEPRP, the “shrunken log2 fold change” value turned out to be 0.11.
Consider RRIRARPPRLPRPRPRPWMHPRP, for which the “shrunken log2 fold change” value was determined as 0.026.
Under RRIRTRPPRLPRPRPRPGSSPRP stands -0.209.
Regarding RRIRCRPPRLPRPRPRPMLQPRP, the “shrunken log2 fold change” value stood at 0.0596.
With RRIRDRPPRLPRPRPRPALVPRP, the “shrunken log2 fold change” value is 0.0217.
Regarding RRIRHRPPRLPRPRPRPTRHPRP, the “shrunken log2 fold change” value was 0.36.
The result for RRIRERPPRLPRPRPRPDRVPRP reads 0.00251.
For the sequence RRIRNRPPRLPRPRPRPHIIPRP, the “shrunken log2 fold change” value is 0.0166.
In the case of RRIRYRPPRLPRPRPRPEVYPRP, the “shrunken log2 fold change” value was -0.0597.
